± gives the standard deviation of the averaged measurements.
Tested on: ATP
Assay: switch fluorescence ratio, 500 uM ATP over buffer (Cy3 cluster intensity, sum of 5 cycles each) (fold (ratio)); higher = stronger signal-on switching upon ATP binding; sequences stand for … in TCGTCGGCAGCGTCAGATGTGTATAAGAGACAGTTTTTTTTTTTTTTTTTTTTTTTTT…TC
Conditions: aptamer strand: ATP DNA aptamer (quencher-CACCTGGGGGAGTATTGCGGAGGAAGG + anchor), 100 nM annealed; ATP concentration: 500 uM
Outline: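 Between each of five buffer/ATP cycles, the flow-cell was stripped with NaOH and re-annealed. Each cycle imaged Cy3-labelled switching-strand clusters, annealed to 100 nM quencher-labelled ATP aptamer on a modified Illumina MiSeq flow-cell, first in selection buffer and then after 15 min with 500 uM ATP at 22 °C. The fluorescence ratio is summed target-cycle over summed buffer-cycle Cy3 intensity per cluster, averaged per switch-domain sequence, with clusters outside 100-1000 RFU excluded.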
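Further: ATP exposure 15 min at 22 °C before imaging.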

Sequence	switch fluorescence ratio
TTTTGTCGGT	0.9667 ± 0.0042
TGGGGTCTGG	0.976 ± 0.026
CGTTCTATCT	1 ± 0.079
AGTCCTGGAG	0.993 ± 0.044
TTTGCCGGGG	1.02 ± 0.06
TTAAAATATT	0.993 ± 0.023
TGTTTTCGTG	0.985 ± 0.015
ACAAGAGGTT	0.995 ± 0.018
TATGGGAGTT	1 ± 0.01
TCGGTGGAGC	1.02 ± 0.13
GGGGTAAAGA	1.02 ± 0.036
CAGTCTGGTA	0.9966 ± 0.0042
TTTTGGGACC	0.992 ± 0.037
GTTTGTTGGA	0.967 ± 0.03
GCTATTTGTA	1.01 ± 0.023
GGGTGGGTGT	1.05 ± 0.057
ACATATGGGT	1.01 ± 0.039
GATGTAGGAA	1.013 ± 0.0065
TCAGGACTCG	0.982 ± 0.035
CCACTGGGCA	1.02 ± 0.042
ATAGCATGTA	0.991 ± 0.01
CATAGTTGTT	1.025 ± 0.0018
ACTGTATGTC	1.03 ± 0.014
GGACAGGGGT	1.03 ± 0.073
AGGCAGTTGG	0.966 ± 0.019

Sequence	switch fluorescence ratio
TGCGCCCGGG	1.033 ± 0.0076
AGATTGAATG	0.97975 ± 0.00032
CTAGATGGGT	1.01 ± 0.046
GATGATGATG	1.014 ± 0.0022
CTCCGTGGGG	1.47 ± 0.042
AGTTTTGACC	1.03 ± 0.059
TGATTTGGAC	1.01 ± 0.061
ATTTTGCAAG	0.994 ± 0.018
AGGGGTAAAG	0.955 ± 0.021
AACGTAGATA	1.042 ± 0.0098
GACATAGACC	1.048 ± 0.0075
CTTGGAGGGG	1.0187 ± 0.00015
TCCAGTTAGG	0.998 ± 0.051
TTGAATTTGG	0.9794 ± 0.0085
GAAGGTTGAG	1.025 ± 0.009
TGGGGGATTT	1.27 ± 0.74
TATGTGGAGG	0.97262 ± 0.00028
TATGGTGTGC	1.02 ± 0.021
AGAGAAGAT	0.988 ± 0.026
TGAGTGAAAT	1.1 ± 0.014
TAGCGTCTGT	0.983 ± 0.02
CGGTTCATCC	1.02 ± 0.014
GCTGCTGTTT	1.01 ± 0.0037
CGAGTAGTCA	0.994 ± 0.018
TTGCTCTGGG	0.974 ± 0.019

Sequence	switch fluorescence ratio
GGGGGATTTT	0.999 ± 0.027
GGAATTATGA	0.995 ± 0.024
AAAAAAGGTT	1.07 ± 0.14
TTTTAGTAGC	1.04 ± 0.0058
TCAGTTATTT	1.04 ± 0.055
TTAGAGCATT	1 ± 0.026
ACGTGCAGTC	1.12 ± 0.083
TTAAGCTTAT	1.012 ± 0.006
TTGGGATAGG	1.01 ± 0.029
AAGGGTTGAG	0.981 ± 0.046
ATTTTTAGTT	0.991 ± 0.037
CTGTGTGTTA	0.9816 ± 0.0036
TTTTCCTCTT	1.02 ± 0.014
TGCTCACGGT	1.02 ± 0.041
TTTTACACTT	1.04 ± 0.017
GATATTTTA	0.9929 ± 0.0069
ATAGGGGGCT	0.9892 ± 0.0096
GAGGGGGGTC	1.04 ± 0.064
CACGAAGACC	1.197 ± 0.0068
TGATGGAGTA	0.969 ± 0.016
GAATGGGGGA	1.02 ± 0.019
AAAGGTTTTT	0.988 ± 0.016
ATCGTAGGTC	0.982 ± 0.052
GCTTATCTTT	0.978 ± 0.051
AATACCATCG	1.05 ± 0.033

Sequence	switch fluorescence ratio
AAGCCTTGGG	1.02 ± 0.022
CCTTTTTCTT	1.04 ± 0.029
GTGGGTGATA	0.994 ± 0.036
TGGAGGGCTT	1.04 ± 0.021
CTCAGACAGC	1.107 ± 0.0056
AGCAGAAAGT	1 ± 0.04
ACGAAAAGTG	1.05 ± 0.072
GTGTCTGGGG	0.9858 ± 0.0076
TCTTCTGGGA	1.026 ± 0.0038
GGACCAAGGT	1.01 ± 0.014
TAGGGAAGAG	0.996 ± 0.041
TGAGGGTGTT	0.998 ± 0.011
TTGATTAGTA	0.97 ± 0.028
AGTGTGGAAT	0.954 ± 0.011
GGTTAGTTGG	0.978 ± 0.027
AAAGGGGGAT	1 ± 0.023
CAGTTTTAGT	1.01 ± 0.032
CATAGCCGGT	1.012 ± 0.0031
CCAGGGGGAC	1.11 ± 0.018
GGTCATTTGT	1 ± 0.041
GCGAGCGAAA	0.982 ± 0.019
GTTAGAGTTT	0.988 ± 0.03
GCACATGGCC	1.03 ± 0.02
CGCTTCTGGG	0.98 ± 0.011
TGGAGAGGGT	0.976 ± 0.0099

Sequence	switch fluorescence ratio
TTTTCGAATT	0.991 ± 0.015
CATTATGGGA	1.009 ± 0.0063
AGGGTATCTC	1.08 ± 0.1
GATGGAGTGT	0.978 ± 0.018
ATCTGGTGCT	1.052 ± 0.0059
ATATATAAAT	0.978 ± 0.033
TTTGTGGCGT	0.984 ± 0.023
CTGTCAACGG	1.02 ± 0.017
TGGGAGGGGT	1.01 ± 0.014
AATTGGTACG	0.992 ± 0.021
TGAAAGATGT	1.01 ± 0.035
CCACTGGGTA	1.054 ± 0.0042
GGCGATTTTT	1.013 ± 0.0022
CGGTTGGGCT	1.01 ± 0.054
TTTTGGAGAT	1.01 ± 0.027
TGGGAAAGGC	1.07 ± 0.061
TGGTTTGGTG	0.985 ± 0.034
TTTTTGAGAT	0.994 ± 0.03
GGGGTACATG	1.022 ± 0.0055
AACGCGGGGG	0.983 ± 0.044
TTGCCTTTCG	0.97 ± 0.041
AAATGCTACG	1.01 ± 0.029
GATACGAAGT	0.981 ± 0.028
AAGGTTAATG	1 ± 0.016
AAGGGGTGGA	1.01 ± 0.05

Sequence	switch fluorescence ratio
GGGACCTGCT	0.951 ± 0.02
CTACCAGGGA	1.149 ± 0.0019
AAATATATTC	1.02 ± 0.012
CCAAGCAGGG	1.66 ± 0.059
TATGGGTGCT	1.06 ± 0.046
ACAAGATTGG	1.01 ± 0.041
TTTTAAAGA	0.982 ± 0.026
GTTGTTGGAA	0.963 ± 0.049
TTGAGCACGG	0.998 ± 0.019
TTATTAAGGG	0.98 ± 0.047
GTTTAATTTA	1.01 ± 0.03
TAAGGGGGCC	1.08 ± 0.16
GTGTTGGATG	0.958 ± 0.069
ACTTTTCGGT	1 ± 0.015
AATTTTTTCC	1.41 ± 0.53
CTTTAGAATC	0.941 ± 0.021
GTGTGTGGCA	1.03 ± 0.038
TAGTGTCAGG	0.988 ± 0.038
CGAGTATGGG	0.9859 ± 0.0011
CATGGGTTCG	1 ± 0.0066
ATGATAATGT	0.985 ± 0.014
GTAGTTTGCG	0.928 ± 0.12
CGAAGTAGAG	1.029 ± 0.0064
ATTTCTTTCA	1.02 ± 0.033
AGCTGGGATT	0.989 ± 0.054

Sequence	switch fluorescence ratio
GGATGGGGCG	0.995 ± 0.027
AATTATGGGG	0.999 ± 0.032
CATTGGACCT	1.29 ± 0.089
GCGTATTGAG	1.02 ± 0.022
ACGGGGGTT	0.98 ± 0.017
ATTTGGGACA	1.01 ± 0.012
CTGAAAGAGT	0.976 ± 0.026
AGGGGTGTG	1 ± 0.046
TCTTTTTCCC	1.01 ± 0.022
CATTCGGGGG	0.997 ± 0.016
TGTAGTCCTT	0.949 ± 0.015
GTTGGTTGTT	0.985 ± 0.023
TACGAATCTG	1.03 ± 0.019
AAATAGTGTG	1 ± 0.033
GGGTGAGGGG	1.01 ± 0.033
GTTTCCAACT	1.01 ± 0.021
GGGGCAGCCG	1.01 ± 0.059
GTCACCAGAT	1.002 ± 0.0077
TACGGTGGGA	1.0079 ± 0.00053
TTTTGTTTAT	1.01 ± 0.058
GAATGTAGGG	0.967 ± 0.046
GGGGTTTAAT	1 ± 0.034
TTAAAGGGAT	1.1 ± 0.16
GTCGTCGGAG	1.03 ± 0.019
CCTGGTGAGG	1.04 ± 0.072

Sequence	switch fluorescence ratio
AGGGGGCTCT	1.02 ± 0.029
ACGTTTTAA	0.9999 ± 0.0084
GCAACCGAGG	1.04 ± 0.064
TATATGGGTT	0.9849 ± 0.0062
TTTTTCAACT	1.03 ± 0.036
TGCTGCTTTT	0.943 ± 0.036
GTGATGGGGT	1.01 ± 0.038
CCGGGTGGTA	1.17 ± 0.015
GCCTTGATGG	1.01 ± 0.021
CCTTTAGGTT	1 ± 0.049
TTTTTACTGC	0.997 ± 0.029
AGTACAGGGT	0.99 ± 0.032
TCGTTTTACT	1.34 ± 0.44
ATGTATACTT	1.09 ± 0.14
GTTTAAAAAA	1 ± 0.021
CCGTCATTGT	1.11 ± 0.02
GAAGTTGCGA	0.9835 ± 0.0091
GGTATTGAGG	0.9871 ± 0.003
CATGGCGGAG	1.03 ± 0.023
ATAGGATTTG	1.032 ± 0.0096
TAGCTCCGTA	1.09 ± 0.036
CATTGAAGTG	0.986 ± 0.053
ATGGTAGGTG	1.04 ± 0.083
AAGGAGGTTG	0.999 ± 0.053
CATTCGTCGC	1.12 ± 0.026

From the supplement of paper PMC10126150
